Laboratory results as given in the supplement of paper PMC10126150.
± gives the standard deviation of the averaged measurements.

tested on: ATP; assay: switch fluorescence ratio, 500 uM ATP over buffer (Cy3 cluster intensity, sum of 5 cycles each) (fold (ratio)); higher = stronger signal-on switching upon ATP binding; sequences stand for … in TCGTCGGCAGCGTCAGATGTGTATAAGAGACAGTTTTTTTTTTTTTTTTTTTTTTTTT…TC; conditions: aptamer strand: ATP DNA aptamer (quencher-CACCTGGGGGAGTATTGCGGAGGAAGG + anchor), 100 nM annealed; ATP concentration: 500 uM
In short: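 The quencher-labelled ATP aptamer, at 100 nM, was annealed to Cy3-labelled switching-strand clusters on a modified Illumina MiSeq flow-cell. The clusters were imaged in selection buffer, then after 15 min with 500 uM ATP at 22 °C, and this buffer/ATP cycle ran five times with NaOH stripping and re-annealing between runs. Per-cluster fluorescence ratios, summed target-cycle over summed buffer-cycle Cy3 intensity, were averaged per switch-domain sequence. Clusters outside 100-1000 RFU were excluded.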
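Also: ATP exposure 15 min at 22 °C before imaging.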

Compared with GCGCTTGAAT, GCACTAGACT is higher in switch fluorescence ratio: 0.982 ± 0.018 for the first, 1.07 ± 0.029 for the second.

TCAGTAATGA and AGGTTTTTTA are within error of each other in switch fluorescence ratio: 1.0075 ± 7.1e-05 for the first, 1.02 ± 0.022 for the second.

TGATGCTCGG and AAACAATGTG are within error of each other in switch fluorescence ratio: 0.996 ± 0.069 for the first, 0.972 ± 0.013 for the second.

First: TAGGGGAAAG
Second: CCTTTTAGCG
The switch fluorescence ratio of the first is lower: 0.99 ± 0.052 for the first, 1.16 ± 0.055 for the second.

Going from TTCCGTATGA to CGAGGGGTAC, the switch fluorescence ratio rises from 1.05 ± 0.043 to 1.4 ± 0.0095.

Compared with GGAATGGCTT, CAGCAGCTGG is higher in switch fluorescence ratio: 0.999 ± 0.0091 for the first, 1.05 ± 0.034 for the second.

CGGGTGTAGG and TTTTAGTTGG are within error of each other in switch fluorescence ratio: 1.02 ± 0.062 for the first, 0.954 ± 0.038 for the second.

CTAGGGGCTG and TTCGCGTTAG are within error of each other in switch fluorescence ratio: 0.946 ± 0.025 for the first, 1.23 ± 0.29 for the second.

First: TTGTGAAGGG
Second: CTATAAGTCT
The switch fluorescence ratio of the first is lower: 0.9663 ± 0.0013 for the first, 1.022 ± 0.0033 for the second.

CGGTGAGTTG and GATCTGCCTG are within error of each other in switch fluorescence ratio: 1.03 ± 0.04 for the first, 0.985 ± 0.029 for the second.

Compared with CCATAGGAAT, GATGGAGGGG is lower in switch fluorescence ratio: 1.06 ± 0.023 for the first, 0.9965 ± 0.0039 for the second.

TGCTGGCATA and AATATTTGG are within error of each other in switch fluorescence ratio: 1.18 ± 0.29 for the first, 1.008 ± 0.0091 for the second.

Compared with TCACGTTGTT, ACCGACCGGG is higher in switch fluorescence ratio: 0.981 ± 0.036 for the first, 1.074 ± 0.005 for the second.

Compared with TTAATTGACA, GATTATTAGT is lower in switch fluorescence ratio: 1.064 ± 0.0092 for the first, 1.012 ± 0.01 for the second.

TGATAAAGAT and GGGGTCGGCC are within error of each other in switch fluorescence ratio: 1.02 ± 0.034 for the first, 0.995 ± 0.018 for the second.

First: AATCGGCGCT
Second: CCGATGTATA
The switch fluorescence ratio of the first is lower: 1.01 ± 0.045 for the first, 1.35 ± 0.053 for the second.

Going from GTTTGGGGAT to GCGGCTTCGG, the switch fluorescence ratio rises from 0.972 ± 0.022 to 1.04 ± 0.032.

GTTGGTTTGG and CTAGGTGTGG are the same in switch fluorescence ratio: 1.04 ± 0.013 for the first, 1.04 ± 0.057 for the second.

GATTACTTTG and GTCCGGGGTC are within error of each other in switch fluorescence ratio: 0.9562 ± 0.0039 for the first, 0.972 ± 0.065 for the second.

First: AATTACTTCT
Second: TTATGAAGTT
The switch fluorescence ratio of the first is higher: 1.042 ± 0.0026 for the first, 0.996 ± 0.014 for the second.

GTTAACTCTG and CGGATGATGA are within error of each other in switch fluorescence ratio: 0.9801 ± 0.0084 for the first, 1.02 ± 0.089 for the second.

Compared with TTAGAAGGTG, CGGAAGGTAG is lower in switch fluorescence ratio: 1.16 ± 0.078 for the first, 0.962 ± 0.015 for the second.

TTCGGTTGTA and CAGATTGTGT are within error of each other in switch fluorescence ratio: 1.009 ± 0.0067 for the first, 1 ± 0.039 for the second.

CTGGTTGGGT and TGAAGATAAC are within error of each other in switch fluorescence ratio: 1.01 ± 0.027 for the first, 1.02 ± 0.026 for the second.

TCGACTGAGG and TTTGATTTTC are within error of each other in switch fluorescence ratio: 1.03 ± 0.031 for the first, 0.976 ± 0.049 for the second.

AAGATTTGGG and TGAGATTTTT are within error of each other in switch fluorescence ratio: 0.991 ± 0.027 for the first, 0.975 ± 0.048 for the second.

Going from GAAGACAGCG to TAGGGCGAGG, the switch fluorescence ratio falls from 1.07 ± 0.024 to 0.9899 ± 0.001.

Compared with TTCGTATAAG, AAACTGTACT is higher in switch fluorescence ratio: 0.9936 ± 0.0076 for the first, 1.425 ± 0.0099 for the second.

ATATGACTTT and TCTTGGACGA are within error of each other in switch fluorescence ratio: 1.01 ± 0.052 for the first, 0.991 ± 0.025 for the second.

GCGTTTTGGG and AAAATATGCC are within error of each other in switch fluorescence ratio: 0.979 ± 0.041 for the first, 1.02 ± 0.026 for the second.

AAGTTGGTGG and TTGTCTTTGG are within error of each other in switch fluorescence ratio: 0.987 ± 0.033 for the first, 1.01 ± 0.041 for the second.

AGGGGTTAGG and ATCGGGTCCA are within error of each other in switch fluorescence ratio: 0.992 ± 0.021 for the first, 0.979 ± 0.028 for the second.

Going from TTCTTATGAT to ACCCGTAATG, the switch fluorescence ratio rises from 0.9721 ± 0.0011 to 1.75 ± 0.028.

AAGGTGCGGG and TATTAGGGGT are within error of each other in switch fluorescence ratio: 0.999 ± 0.023 for the first, 1.01 ± 0.023 for the second.

TTTGTCGTAA and TCTCTACTGG are within error of each other in switch fluorescence ratio: 0.999 ± 0.0014 for the first, 1.03 ± 0.058 for the second.

First: TGTGGGGCGG
Second: ACCAGGGGAG
The switch fluorescence ratio of the first is lower: 1.01 ± 0.051 for the first, 1.26 ± 0.066 for the second.

Going from GACGGGATCT to GTGGTGTACT, the switch fluorescence ratio falls from 1.042 ± 0.0092 to 0.985 ± 0.0081.

AGTATGTGCT and TCCTGGAGGA are within error of each other in switch fluorescence ratio: 0.965 ± 0.024 for the first, 0.989 ± 0.05 for the second.

AGTTAGAGTG and TTAGGGTTGG are within error of each other in switch fluorescence ratio: 0.976 ± 0.016 for the first, 0.99 ± 0.034 for the second.

GATTAATAAG and TTTAGCTTCA are within error of each other in switch fluorescence ratio: 1.16 ± 0.26 for the first, 1.099 ± 0.0078 for the second.

ATAATGGAGT and TGATACCATG are within error of each other in switch fluorescence ratio: 0.983 ± 0.066 for the first, 0.997 ± 0.018 for the second.

GGTGATGGGG and AGGATGGTGA are within error of each other in switch fluorescence ratio: 0.985 ± 0.038 for the first, 0.968 ± 0.015 for the second.

TAGAAAGACT and AAAGGGGGTC are within error of each other in switch fluorescence ratio: 1.07 ± 0.067 for the first, 1.01 ± 0.039 for the second.

Going from CGGGAAGGTA to TAAGATCTGG, the switch fluorescence ratio rises from 0.981 ± 0.016 to 1.006 ± 0.0021.

TTTTTATGCC and GGGTAAAGAA are within error of each other in switch fluorescence ratio: 0.963 ± 0.05 for the first, 1.01 ± 0.036 for the second.

GTTTGCTGTT and TAAGAGGGGA are within error of each other in switch fluorescence ratio: 0.9931 ± 0.0089 for the first, 1.01 ± 0.027 for the second.

CAGTGTGTGC and GGGTGTTACA are within error of each other in switch fluorescence ratio: 1.03 ± 0.015 for the first, 1.05 ± 0.022 for the second.

ATAAATTGCA and GGGGTTTTAC are within error of each other in switch fluorescence ratio: 0.998 ± 0.02 for the first, 0.995 ± 0.036 for the second.

AGAGGGGGCC and CTTAGTGCTT are within error of each other in switch fluorescence ratio: 0.98 ± 0.18 for the first, 0.973 ± 0.039 for the second.

TAAATATGTG and GCCGGGGCCT are within error of each other in switch fluorescence ratio: 0.986 ± 0.021 for the first, 1.03 ± 0.042 for the second.

GCTCGGGGTA and ATCTTCTTAG are within error of each other in switch fluorescence ratio: 1.02 ± 0.013 for the first, 0.977 ± 0.051 for the second.

ATGCATGGAC and TTCCTTTTTT are within error of each other in switch fluorescence ratio: 1.11 ± 0.12 for the first, 1.03 ± 0.065 for the second.

CGTAAATGTG and TTTGGAAAAA are within error of each other in switch fluorescence ratio: 0.9668 ± 0.0066 for the first, 0.996 ± 0.032 for the second.

Going from TTGTTGGTCT to CGGTATGGTA, the switch fluorescence ratio falls from 1.009 ± 0.0075 to 0.972 ± 0.023.

AAGAGCACT and TCGATAGGGG are within error of each other in switch fluorescence ratio: 1.05 ± 0.048 for the first, 0.98 ± 0.054 for the second.

GGGTATTTTA and AGGCCGTAGG are within error of each other in switch fluorescence ratio: 0.988 ± 0.057 for the first, 0.937 ± 0.048 for the second.

TAGGCGTGTC and GGAGTGATTT are within error of each other in switch fluorescence ratio: 0.992 ± 0.016 for the first, 1 ± 0.017 for the second.

Going from TGTGTGTGGG to AGTTGCTGCT, the switch fluorescence ratio falls from 1.03 ± 0.012 to 0.995 ± 0.02.

GTCGTAGGGA and TCGTTTACGC are within error of each other in switch fluorescence ratio: 0.973 ± 0.013 for the first, 1.02 ± 0.08 for the second.

TTGGGTGTCT and GGTAAAAAGG are within error of each other in switch fluorescence ratio: 0.988 ± 0.057 for the first, 0.971 ± 0.022 for the second.

CAGTGCGCTT and GACGGGGGTG are within error of each other in switch fluorescence ratio: 1.1 ± 0.085 for the first, 1.01 ± 0.023 for the second.

Going from CGATGGGATT to CGCGGTAGCG, the switch fluorescence ratio falls from 1.056 ± 0.0043 to 0.972 ± 0.041.

TGAGTGATTT and TTTGCCGGGT are within error of each other in switch fluorescence ratio: 1.02 ± 0.031 for the first, 0.998 ± 0.046 for the second.

GGTTTCGGCA and GATAGATAGG are within error of each other in switch fluorescence ratio: 1.01 ± 0.0045 for the first, 0.967 ± 0.055 for the second.

GGAACGTGGT and TTATTATAGA are within error of each other in switch fluorescence ratio: 0.971 ± 0.017 for the first, 0.998 ± 0.021 for the second.

TTTGTTGGCA and TTTTTTGTCG are within error of each other in switch fluorescence ratio: 0.986 ± 0.024 for the first, 0.993 ± 0.053 for the second.

GCTAGGCGGA and GGCAAAGCGT are within error of each other in switch fluorescence ratio: 1.0381 ± 0.0006 for the first, 1.03 ± 0.025 for the second.

Compared with GGGTCTTGTA, TTTCGCTC is higher in switch fluorescence ratio: 0.99 ± 0.016 for the first, 1.06 ± 0.019 for the second.

GGTGAAGTGC and AAAATTTAGG are within error of each other in switch fluorescence ratio: 0.992 ± 0.068 for the first, 0.986 ± 0.03 for the second.

TCGGCAAGTT and AATTTTTTGA are within error of each other in switch fluorescence ratio: 1.2 ± 0.33 for the first, 0.972 ± 0.033 for the second.

Compared with TACTGGGCTT, TGGGATTATG is lower in switch fluorescence ratio: 1.024 ± 0.0014 for the first, 0.976 ± 0.0098 for the second.

GAGGATGCTC and AGGGTAATCG are within error of each other in switch fluorescence ratio: 1.01 ± 0.015 for the first, 1.02 ± 0.011 for the second.

Compared with TGGGGATTAG, CATTGTATGT is lower in switch fluorescence ratio: 1.01 ± 0.033 for the first, 0.9421 ± 0.0087 for the second.

TTCAGGTATG and TGGGCGTGTG are within error of each other in switch fluorescence ratio: 1.01 ± 0.028 for the first, 1.02 ± 0.017 for the second.

TAATAGGAAG and GGATGGGGCT are within error of each other in switch fluorescence ratio: 1.26 ± 0.43 for the first, 1.02 ± 0.03 for the second.

ACTGTTTTGC and GTGGGGTCGC are within error of each other in switch fluorescence ratio: 0.999 ± 0.019 for the first, 0.978 ± 0.012 for the second.

In the case of AGATTTTGTG, the switch fluorescence ratio is reported as 0.9922 ± 0.0038.
